In test [1] the target is HIV-1 Gag CTD-SP1 (residues 281–377 of HIV-1 NL4-3 Gag, P373T) (HIV-1 NL4-3). The test is described as follows: crystal structure; plate crystals of stacked flat hexagonal lattices; 0.1 M Bis-Tris propane, pH 7-8, 0.8-1.0 M LiSO4; sitting drops, 1:2 protein:precipitant; 3.27 Å.
Test [2] shares this target. The test is described as follows: crystal structure; other crystal hits from screens with commercial and in-house precipitants; mature-like dimer form of the CTD with disordered SP1 tails; not deposited.

As to “HIV-1 Gag CTD-SP1 (residues 281–377 of HIV-1 NL4-3 Gag, P373T) (domain or fragment)”, the results for the stoichiometry N in test [1] and in test [2] were 6 and 2, respectively.
